Assay [1] deals with T1, Claudin 18.2 (CLDN18.2), expressed on CHOS-CLDN 18.2 / HEK293-CLDN 18.2 / HCC827-CLDN 18.2 cells (human, UniProt P56856-2 1-261).
T1 construct: whole, on cells; The species is not repeated for the CHOS-CLDN 18.2 cells; also called claudin-18A2
The assay is described as follows: FACS, CHOS-CLDN18.2 cells, 0.313 µg/ml. (In general: In flow cytometry, cells or beads pass a laser one at a time.)
Protocol: (§1) The initial concentration of the antibody was 20 μg/ml, it was diluted at 1:4, and incubated at 4° C. for 60 min.

Assay [2] has as its target T1, Claudin 18.2 (CLDN18.2), expressed on …. The assay is described as follows: FACS, CHOS-CLDN18.2 cells, 0.078 µg/ml.
Protocol: as §1
The target is the same in assay [3]. In words: FACS, CHOS-CLDN18.2 cells.
Protocol: as §1
Assay [4] shares this target. In words: FACS, CHOS-CLDN18.2 cells, 0.020 µg/ml.
Protocol: as §1
The target is the same in assay [5]. The assay is described as follows: FACS, CHOS-CLDN18.2 cells, 20 µg/ml.
Protocol: as §1
For assay [6] the target is unchanged. The assay is described as follows: FACS, CHOS-CLDN18.2 cells, 0.005 µg/ml.
Protocol: as §1
For assay [7] the target is unchanged. The assay is described as follows: FACS, CHOS-CLDN18.2 cells, 0 µg/ml (background).
Protocol: as §1
Assay [8] shares this target. In words: FACS, CHOS-CLDN18.2 cells, 1.250 µg/ml.
Protocol: as §1
For assay [9] the target is unchanged. The assay is described as follows: FACS, CHOS-CLDN18.2 cells, 10 µg/ml.
Protocol: (§2) The initial concentration of the antibody was 20 μg/mkit was diluted at 1:4, and incubated at 4° C. for 60 min.
The target is the same in assay [10]. In words: FACS, MFI on CHOS-CLDN18.2 over MFI on CHOS-CLDN18.1, 10 µg/ml.
Protocol: as §2
For assay [11] the target is unchanged. In words: FACS, CHOS-CLDN18.2 cells, 5 µg/ml.
Protocol: as §1
The target is the same in assay [12]. In words: FACS, CHOS-CLDN18.2 cells, 20 µg/ml. The source holds these as a separate data set.
Protocol: as §1
The target is the same in assay [13]. The assay is described as follows: FACS, CHOS-CLDN18.2 cells, 5 µg/ml. This is another data set of the same source.
Protocol: as §1
For assay [14] the target is unchanged. In words: FACS, CHOS-CLDN18.2 cells. The source holds these as a separate data set.
Protocol: as §1
Assay [15] shares this target. In words: FACS, CHOS-CLDN18.2 cells, 0.005 µg/ml. This is another data set of the same source.
Protocol: as §1
The target is the same in assay [16]. In words: FACS, CHOS-CLDN18.2 cells, 0 µg/ml (background). The source holds these as a separate data set.
Protocol: as §1
Assay [17] has the same target. In words: FACS, CHOS-CLDN18.2 cells, 0.078 µg/ml. This is another data set of the same source.
Protocol: as §1
Assay [18] has the same target. In words: FACS, CHOS-CLDN18.2 cells, 0.313 µg/ml. This is another data set of the same source.
Protocol: as §1
For assay [19] the target is unchanged. In words: FACS, CHOS-CLDN18.2 cells, 1.250 µg/ml. The source holds these as a separate data set.
Protocol: as §1
The target is the same in assay [20]. In words: FACS, CHOS-CLDN18.2 cells, 0.020 µg/ml. This is another data set of the same source.
Protocol: as §1

Where two headings read alike, the source gives them in different places.

B1: QP14441441 (antibody, human IgG1, kappa, V domains shown)
VH: QVQLVQSGAEVKKPGASVKVSCKASGYAFSSYWMNWVRQAPGQGLEWIGQIYPGNGDTTYNGKFKGRVTMTADKSTSTVYMELSSLRSEDTAVYYCARFVKGNAMDYWGQGTLVTVSS
VL: DIVMTQSPDSLAVSLGERATISCKSSQSLLNSGNQKNYLTWYQQKPGQPPKLLIYWASTRESGVPDRFSGSGSGIDFTLTISSVQAEDVAVYYCQNAYSYPFTFGQGTKLEIKR
notes: Humanized from QP192193
One may read the EC50 as the concentration giving half of the maximal effect. Low values mean greater potency, high ones weaker potency. Turning to B1, the FACS reading in assay [1] was 74700; in assay [2], 27300; in assay [4] it was 10100; in assay [5], 175000; in [6], 4230; in [7], 732. Moreover, the FACS reading in assay [8] was 125000; in [11] it was 151000. The same molecule registered an EC50 in assay [3] of 0.484 µg/mL. In assay [3], this molecule came in with a max of 175000. For the same molecule, the MFI in assay [9] was found to be 693000. In addition, in assay [10], the “CLDN18.2/CLDN18.1 (MFI ratio)” value was 608.

B2: QP14501448 (antibody, human IgG1, kappa, V domains shown)
VH: EVQLVESGGGLVQPGGSLRLSCAASGFTFSSFGMHWVRQAPGKGLEWVAYISSGSNSIYYVDTVKGRFTISRDNAKNSLYLQMNSLRDEDTAVYYCARNAYYGNSFDYWGQGTLVTVSS
VL: DIVMTQSPDSLAVSLGERATISCKSSQSLLNSGNQKNYLTWYQQKPGQPPKLLIYWASTRESGVPDRFTGSGSGTVFTLTISSLQAEDVAVYFCQNNYYYPLTFGGGTKVEIKR
notes: Humanized from QP199200
For the molecule B2, the FACS reading in assay [12] came out at 117000; in assay [13], 149000; in assay [15] it was 2480; in assay [16], 732; in [17], 14200; in [18], 45600. Further, the FACS reading stood at 108000 in assay [19] and 7460 in assay [20]. The same molecule displayed an EC50 in assay [14] of 0.498 µg/mL. The molecule also had a max in assay [14] of 149000. This molecule also registered an MFI in assay [9] of 540000. The “CLDN18.2/CLDN18.1 (MFI ratio)” value in assay [10] came to 501.

B3: QP14501446 (antibody, human IgG1, kappa, V domains shown)
VH: EVQLVESGGGLVQPGGSLRLSCAASGFTFSSFGMHWVRQAPGKGLEWVAYISSGSNSIYYVDTVKGRFTISRDNAKNSLYLQMNSLRDEDTAVYYCARNAYYGNSFDYWGQGTLVTVSS
VL: DIVMTQSPDSLAVSLGERATINCKSSQSLLNSGNQKNYLTWYQQKPGQPPKLLIYWASTRESGVPDRFSGSGSGTDFTLTISSLQAEDVAVYYCQNNYYYPLTFGGGTKVEIKR
notes: Humanized from QP199200
Turning to B3, the FACS reading in assay [12] was 160000; in assay [13], 143000; in assay [15], 2330; in assay [16], 732; in assay [17] it was 13900; in [18], 39500. The results for the FACS reading in [19] and in assay [20] were 96200 and 6350, respectively. The molecule further showed an EC50 in assay [14] of 0.962 µg/mL. The molecule also had a max in assay [14] of 143000. This molecule also yielded an MFI in assay [9] of 505000. Moreover, the “CLDN18.2/CLDN18.1 (MFI ratio)” value in assay [10] was determined as 510.

B4: QP14491448 (antibody, human IgG1, kappa, V domains shown)
VH: EVQLVESGGGLVQPGGSLRLSCAASGFTFSSFGMHWVRQAPGKGLEWVSYISSGSNSIYYVDTVKGRFTISRDNAKNSLYLQMNSLRDEDTAVYYCARNAYYGNSFDYWGQGTLVTVSS
VL: DIVMTQSPDSLAVSLGERATISCKSSQSLLNSGNQKNYLTWYQQKPGQPPKLLIYWASTRESGVPDRFTGSGSGTVFTLTISSLQAEDVAVYFCQNNYYYPLTFGGGTKVEIKR
notes: Humanized from QP199200
Regarding B4, the FACS reading is 183000 in assay [12]; 154000 in assay [13]; 2410 in assay [15]; 732 in assay [16]; 19200 in [17]; 45100 in assay [18]. Further, the FACS reading was 132000 in assay [19] and 6320 in [20]. In [14], this molecule gave an EC50 of 0.666 µg/mL. For the same molecule, the max in [14] was determined as 154000. This molecule also came in with an MFI in [9] of 484000. For the same molecule, the “CLDN18.2/CLDN18.1 (MFI ratio)” value in assay [10] was 487.

B5: QP199200 (antibody, human IgG1, V domains shown)
VH: DVQLVESGGGLVQPGGSRKLSCAASGFTFSSFGMHWVRQAPEKGLEWVAYISSGSNSIYYVDTVKGRFTISRDNPKNTLFLQMTSLKSEDTAMYYCARNAYYGNSFDYWGQGTTLTVSS
VL: DIVMTQSPSSLTVTAGEKVTMSCKSSQSLLNSGNQKNYLTWYQQKPGQPPKLLIYWASTRESGVPDRFTGSGSGTVFTLTISSVQAEDLAVYFCQNNYYYPLTFGAGTKLELK
notes: Chimeric; also called 43C11; mouse-derived chimeric antibody QP199200
Take B5: the FACS reading is 218000 in [12]; 165000 in [13]; 2760 in assay [15]; 732 in assay [16]; 19900 in assay [17]; 50600 in assay [18]. Besides, the FACS reading is 132000 in assay [19] and 7520 in assay [20]. The molecule further had an EC50 in assay [14] of 1.19 µg/mL. In [14], this molecule gave a max of 165000. In assay [9], this molecule registered an MFI of 514000. Moreover, the “CLDN18.2/CLDN18.1 (MFI ratio)” value in assay [10] was 560.

The values are drawn from US20230183352A1 (published 2023).
